# Results reported in the supplement of paper PMC6757056.
# ± gives the standard deviation of the averaged measurements.
# B1: library; a variant is named by its letters at N, in order (parent)
# chain: GCUGUCACCGAGAAACUGUGAAGUAUAUCUUAAACCUGGGCACUUAAAAGAUAUAUGGAGUUAGUAGUGCAACCUGCUCGGUCUGAUGAGUCCNNNNNNGGACGAAACAGC
# Tests used:
# cyclic di-GMP [1] = variants of: B1; assay: FACS-Seq fitted mean relative fluorescence mCherry/BFP without ligand (log10 relative fluorescence); HEK293T; ligand: cyclic di-GMP (c-di-GMP-II aptamer); higher = higher reporter protein expression; conditions: ligand present: no
# Method in brief: (§1)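 Fluorescence figures are normalized fitted normal means of sequenced bin counts. Enriched, lentivirally transduced HEK293T libraries with a ribozyme-switch mCherry reporter and EF1α-BFP were held 48 h with or without ligand, then sorted into 6 mCherry/BFP bins. PCR-amplified, barcoded genomic DNA from each bin was sequenced on MiSeq. Means of log10(mCherry/BFP) were scaled to five spiked-in control ribozymes.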
# cyclic di-GMP [2] = variants of: B1; assay: normalized RNA/DNA level without ligand (relative to sTRSVctl = 100) (log10 (% of sTRSVctl)); HEK293T; ligand: cyclic di-GMP (c-di-GMP-II aptamer); higher = less ribozyme self-cleavage, higher mRNA level; conditions: reporter: mCherry (pCS4076), ligand present: no
# Method in brief: (§2)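 Only sequences with at least 100 DNA reads were analyzed, from HEK293T cells transfected with 4 µg per 6-well well of ribozyme switch library plasmids 72 h before RNA extraction with EDTA. Any ligand was added 1 h before transfection. RNA level was defined as RNA over DNA reads, normalized to a spiked-in non-cleaving sequence or to the top sequences, then scaled and log-transformed. The top set was 25 sequences, and the scaling was ×100 followed by log10.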
# cyclic di-GMP [3] = variants of: B1; assay: FACS-Seq fitted mean relative fluorescence mCherry/BFP with ligand (log10 relative fluorescence); HEK293T; ligand: cyclic di-GMP (c-di-GMP-II aptamer); ligand concentration (+) FACS-Seq: 1 mM; higher = higher reporter protein expression; conditions: ligand present: yes
# Method in brief: as §1
# cyclic di-GMP [4] = variants of: B1; assay: normalized RNA/DNA level with ligand (relative to sTRSVctl = 100) (log10 (% of sTRSVctl)); HEK293T; ligand: cyclic di-GMP (c-di-GMP-II aptamer); ligand concentration (+) RNA-Seq: 1 mM; higher = less ribozyme self-cleavage, higher mRNA level; conditions: reporter: mCherry (pCS4076), ligand present: yes
# Method in brief: as §2
Variant,FACS-Seq fitted mean (log10) (cyclic di-GMP [1]),normalized RNA/DNA level without ligand (log10) (cyclic di-GMP [2]),FACS-Seq fitted mean (log10) (cyclic di-GMP [3]),normalized RNA/DNA level with ligand (log10) (cyclic di-GMP [4])
GUGAAG,-0.453 ± 0.027,1.5 ± 0.067,-0.278 ± 0.08,1.66 ± 0.064
ACAAAA,-0.498 ± 0.059,1.31 ± 0.11,-0.271 ± 0.018,1.52 ± 0.069
CAGCUA,-0.432 ± 0.009,1.37 ± 0.077,-0.148 ± 0.079,1.56 ± 0.076
GCAGCU,-0.242 ± 0.076,1.65 ± 0.018,-0.0553 ± 0.039,1.78 ± 0.11
CCACCU,-0.368 ± 0.015,1.66 ± 0.02,-0.107 ± 0.015,1.8 ± 0.096
ACAACU,-0.512 ± 0.13,1.57 ± 0.037,-0.23 ± 0.091,1.76 ± 0.13
CAGUUA,-0.724 ± 0.01,1.28 ± 0.15,-0.4923 ± 0.0038,1.42 ± 0.041
GUUCGA,-0.345 ± 0.023,1.6 ± 0.018,0.045 ± 0.055,1.75 ± 0.12
CUGCGA,-0.33 ± 0.01,1.65 ± 0.024,0.0519 ± 0.0084,1.8 ± 0.095
GUAGGA,-0.422 ± 0.02,1.43 ± 0.081,-0.137 ± 0.14,1.64 ± 0.11
UUAUCC,-0.109 ± 0.15,1.76 ± 0.023,0.218 ± 0.082,1.86 ± 0.084
AACUGA,-0.155 ± 0.014,1.54 ± 0.047,0.0803 ± 0.017,1.68 ± 0.12
CUUAGC,-0.863 ± 0.058,1.79 ± 0.00046,-0.484 ± 0.043,1.88 ± 0.11
CUGAAU,-0.0233 ± 0.075,1.43 ± 0.045,0.269 ± 0.11,1.61 ± 0.075
UCCUCG,0.369 ± 0.066,1.797 ± 0.0034,0.448 ± 0.0052,1.91 ± 0.074
GAACUA,-0.288 ± 0.19,1.6 ± 0.068,0.0146 ± 0.12,1.77 ± 0.091
GCGAAU,-0.502 ± 0.029,1.45 ± 0.057,-0.149 ± 0.079,1.64 ± 0.14
CGUAUA,-0.76 ± 0.11,1.3 ± 0.1,-0.4664 ± 0.0033,1.45 ± 0.13
UCAGUA,-0.6 ± 0.076,1.33 ± 0.2,-0.299 ± 0.076,1.59 ± 0.082
CGCAUG,-0.455 ± 0.031,1.627 ± 0.0082,-0.162 ± 0.14,1.8 ± 0.12
CGCAUA,-0.777 ± 0.12,1.29 ± 0.082,-0.5758 ± 0.0012,1.52 ± 0.17
GCUAAU,-0.207 ± 0.11,1.56 ± 0.049,0.146 ± 0.04,1.74 ± 0.078
AUUCGC,-0.123 ± 0.015,1.7768 ± 0.00017,0.194 ± 0.063,1.91 ± 0.11
AAGCCU,0.14 ± 0.18,1.705 ± 0.014,0.3704 ± 0.0037,1.84 ± 0.11

Variant,FACS-Seq fitted mean (log10) (cyclic di-GMP [1]),normalized RNA/DNA level without ligand (log10) (cyclic di-GMP [2]),FACS-Seq fitted mean (log10) (cyclic di-GMP [3]),normalized RNA/DNA level with ligand (log10) (cyclic di-GMP [4])
CCCAUU,-0.0438 ± 0.1,1.637 ± 0.0022,0.204 ± 0.023,1.79 ± 0.13
CGGCUU,-0.717 ± 0.062,1.5 ± 0.099,-0.63 ± 0.15,1.67 ± 0.062
UCGGAG,-0.311 ± 0.011,1.54 ± 0.088,0.0865 ± 0.03,1.72 ± 0.08
CAGCCA,-0.196 ± 0.089,1.42 ± 0.05,0.0333 ± 0.08,1.67 ± 0.14
UACUUU,-0.1 ± 0.037,1.68 ± 0.019,0.192 ± 0.048,1.84 ± 0.13
UUGUAG,-0.163 ± 0.065,1.6682 ± 0.00036,0.112 ± 0.032,1.83 ± 0.14
AAAUAA,-0.515 ± 0.032,1.45 ± 0.067,-0.21 ± 0.07,1.68 ± 0.12
UACCCA,-0.0154 ± 0.2,1.73 ± 0.074,0.278 ± 0.097,1.86 ± 0.13
GAAGCG,-0.36 ± 0.013,1.841 ± 0.018,-0.268 ± 0.16,1.87 ± 0.069
UCGGUC,-0.238 ± 0.16,1.675 ± 0.0093,0.0705 ± 0.033,1.83 ± 0.1
GAAACA,-0.441 ± 0.093,1.61 ± 0.023,-0.185 ± 0.018,1.73 ± 0.1
UCUAAU,-0.491 ± 0.013,1.6 ± 0.017,-0.327 ± 0.062,1.78 ± 0.1
AUUGUA,-0.397 ± 0.017,1.56 ± 0.031,0.0499 ± 0.075,1.71 ± 0.097
CUUCAU,-0.264 ± 0.079,1.58 ± 0.044,-0.136 ± 0.066,1.75 ± 0.12
GUUCUG,-0.079 ± 0.018,1.67 ± 0.021,0.284 ± 0.091,1.84 ± 0.15
AGAACA,0.105 ± 0.17,1.53 ± 0.036,0.348 ± 0.0047,1.72 ± 0.13
GCUAUG,-0.741 ± 0.034,1.58 ± 0.075,-0.505 ± 0.019,1.72 ± 0.078
GCCACC,-0.0159 ± 0.27,1.682 ± 0.011,0.0347 ± 0.1,1.84 ± 0.095
CGUACU,-0.584 ± 0.039,1.43 ± 0.087,-0.327 ± 0.022,1.66 ± 0.12
CUCUAG,0.319 ± 0.13,1.764 ± 0.015,0.4467 ± 0.0016,1.83 ± 0.11
GUGUUG,-0.394 ± 0.069,1.59 ± 0.068,-0.183 ± 0.047,1.74 ± 0.12
GUGUUA,-0.147 ± 0.075,1.58 ± 0.027,0.207 ± 0.022,1.77 ± 0.092
UUGUUC,-0.6418 ± 0.0047,1.75 ± 0.018,-0.462 ± 0.0095,1.89 ± 0.1
UGAUUU,0.198 ± 0.26,1.69 ± 0.047,0.343 ± 0.1,1.86 ± 0.16

Variant,FACS-Seq fitted mean (log10) (cyclic di-GMP [1]),normalized RNA/DNA level without ligand (log10) (cyclic di-GMP [2]),FACS-Seq fitted mean (log10) (cyclic di-GMP [3]),normalized RNA/DNA level with ligand (log10) (cyclic di-GMP [4])
AGCACU,0.129 ± 0.16,1.7 ± 0.023,0.4 ± 0.012,1.82 ± 0.12
UUGAAA,-0.168 ± 0.075,1.607 ± 0.0064,-0.0658 ± 0.065,1.76 ± 0.14
UGCAAU,-0.335 ± 0.12,1.66 ± 0.045,-0.151 ± 0.047,1.81 ± 0.089
CUAAUA,-0.533 ± 0.025,1.39 ± 0.066,-0.316 ± 0.011,1.6 ± 0.12
GAGACU,-0.22 ± 0.13,1.791 ± 0.013,-0.00318 ± 0.073,1.87 ± 0.12
ACGCGG,-0.429 ± 0.041,1.69 ± 0.034,-0.107 ± 0.078,1.8 ± 0.13
AGCAAU,-0.834 ± 0.048,1.74 ± 0.037,-0.638 ± 0.037,1.87 ± 0.16
CGUUUU,-0.597 ± 0.085,1.46 ± 0.052,-0.329 ± 0.11,1.61 ± 0.098
GGUUCC,0.28 ± 0.17,1.8648 ± 0.0011,0.396 ± 0.056,1.96 ± 0.085
CGGACA,-0.421 ± 0.083,1.4 ± 0.13,-0.265 ± 0.047,1.58 ± 0.085
ACUCCC,-0.621 ± 0.049,1.77 ± 0.049,-0.284 ± 0.087,1.87 ± 0.14
GUGGUC,-0.682 ± 0.026,1.25 ± 0.077,-0.386 ± 0.015,1.46 ± 0.099
AAUGGG,-0.71 ± 0.015,1.4 ± 0.11,-0.453 ± 0.035,1.57 ± 0.076
AAUGGA,-0.46 ± 0.012,1.36 ± 0.11,-0.114 ± 0.0052,1.55 ± 0.066
GCGACG,-0.315 ± 0.099,1.55 ± 0.096,-0.216 ± 0.13,1.73 ± 0.076
AGAUGC,-0.7631 ± 0.0076,1.66 ± 0.056,-0.47 ± 0.029,1.77 ± 0.12
ACUGUA,-0.443 ± 0.033,1.51 ± 0.076,-0.138 ± 0.021,1.76 ± 0.094
GAAGAA,-0.423 ± 0.0092,1.38 ± 0.15,-0.233 ± 0.045,1.59 ± 0.08
UCAUUA,-0.996 ± 0.055,1.5 ± 0.017,-0.732 ± 0.049,1.73 ± 0.15
AGUAGA,-0.549 ± 0.05,1.36 ± 0.12,-0.22 ± 0.075,1.56 ± 0.086
UGAAGU,-0.24 ± 0.081,1.59 ± 0.024,0.0885 ± 0.12,1.79 ± 0.12
AGGAAA,-0.514 ± 0.031,1.33 ± 0.15,-0.185 ± 0.026,1.52 ± 0.1
CAUAAU,-0.282 ± 0.056,1.46 ± 0.092,-0.0129 ± 0.014,1.63 ± 0.072
